Data as given in US20030092037A1, “Elk1 phosphorylation related gene” (priority 2001, published 2003).
Changes are numbered by the printed parent chain.

B1: 122 (protein, listed as Mus musculus)
chain: MAPAGCGCGCSGSLGAAVVRPLLLLLGALACVRATEHYSPLSLLKQELQHRQQQEAPAGGGCPQSGDWADQYPECESSFLNFHESDCELRGSAPCDSLLSLNTEKILSQAKSIAEQKRFPFATDNDSTNEELAIAYVLVGSGLYDEAIRHFSTMLQEAIEAFKEALKQKVDFIDAYKSLGQAYRELGNFDAATESFQKALLLNQNHVQTQQLRGMMLYHHGSLQEALKNFKRCLQLEPYNELCQYMKGLSHVAMGQFYEGIKAQTKVMLNDPLPGQKASPEYLRVKYLREYSRYLHAHLDTPLTEYNIDSDLPGSFKDHWAKNLPFLIDGYEEQPGLQPHIRDVLHQNFEGYKPEVQELICVADRLGSLMQYETPGFLPNKRIHRAMGLAALEVMQAVHRTWTNSKVRMNGKTRLLQWRDMFDIAVKWRRIADPDQPVLWLDQMPAPSLSRGFNNHINLIRGQVINMRYLEYFEKILHFIKDRILVYHGANNPKGLLEVREALEKVHKVEDLLPIMKQFNTKTKDGFTVNTKVPSLKDQGKEYDGFTITITGDKVGNILFSVETQTTEERTQLYHAEIDALYKDLTAKGKVLTLSAEFGEADAVCNLILSLVYYFYNLMPLSRGSSVIAYSVIVGALMASGKEVAGKIPKGKLVDFEAMTAPGSEAFSKIAKSWMNLKSISPSYKTLPSVSETFPTLRSMIEVLNTDSTPRCLKKL
B2: 150 (protein, listed as Homo sapiens)
chain: MSSGKSARYNRFSGGPSNLPTPDVTTGTRMETTFGPAFSAVTTITKADGTSTYKQHCRTPSSSSTLAYSPRDEEDSMPPISTPRRSDSAISVRSLHSESSMSLRSTFSLPEEEEEPEPLVFAEQPSVKLCCQLCCSVFKDPVITTCGHTFCRRCALKSEKCPVDNVKLTVVVNNIAVAEQIGELFIHCRHGCRVAGSGKPPIFEVDPRGCPFTIKLSARKDHEGSCDYRPVRCPNNPSCPPLLRMNLEAHLKECEHIKCPHSKYGCTFIGNQDTYETHLETCRFEGLKEFLQQTDDRFHEMHVALAQKDQEIAFLRSMLGKLSEKIDQLEKSLELKFDVLDENQSKLSEDLMEFRRDASMLNDELSHINARLNMGILGSYDPQQIFKCKGTFVGHQGPVWCLCVYSMGDLLFSGSSDKTIKVWDTCTTYKCQKTLEGHDGIVLALCIQGCKLYSGSADCTIIVWDIQNLQKVNTIRAHDNPVCTLVSSHNVLFSGSLKAIKVWDIVGTELKLKKELTGLNHWVRALVAAQSYLYSGSYQTIKIWDIRTLDCIHVLQTSGGSVYSIAVTNHHIVCGTYENLIHVWDIESKEQVRTLTGHVGTVYALAVISTPDQTKVFSASYDRSLRVWSMDNMICTQTLLRHQGSVTALAVSRGRLFSGAVDSTVKVWTC
B3: 132 (protein, listed as Mus musculus)
chain: MAGRTMQAARCPTDELSLSNCAVVNEKDFQSGQHVMVRTSPNHKHIFTLRTHPSVVPGCIAFSLPQRKWAGLSIGQDIEVALYSFDKAKQCIGTMTIEIDFLQKKNIDSNPYDTDKMAAEFIQQFNNQAFSVGQQLVFSFNDKLFGLLVKDIEAMDPSILKGEPASGKRQKIEVGLVVGNSQVAFEKAENSSLNLIGKAKTKENRQSIINPDWNFEKMGIGGLDKGFSDIFRRAFASRVFPPEIVEQMGCKHVRGILLYGPPGCGKTLLARQIGKMLNAREPKVVNGPEILNKYVGESEANIRKLFADAEEEQRRLGANSGLHIIIFDEIDAICKQRGSMAGSTGVHDTVVNQLLSKIDGVEQLNNILVIGMTNRPDLIDEALLRPGRLEVKMEIGLPDEKGRLQILHIHTARMRGHQLLSADVDIKELAVETKNFSGAELEGLVRAAQSTAMNRHIKASTKVEVDMEKAESLQVTRGDFLASLENDIKPAFGTNQEDYASYIMNGIIKWGDPVTRVLDDGELLVQQTKNSDRTPLVSVLLEGPPHSGKTALAAKIAEESNFPFIKICSPDKMIGFSETAKCQAMKKIFDDAYKSQLSCVVVDDIERLLDYVPIGPRFSNLVLQALLVLLKKAPPQGRKLLIIGTTSRKDVLQEMEMLNAFSTTIHVPNIATGEQLLEALELLGNFKDKERTTIAQQVKGKKVWIGIKKLLMLIEMSLQMDPEYRVRKFLALMREEGASPLDFD
B4: 146 (protein, listed as Homo sapiens)
chain: MNHIVQTFSPVNSGQPPNYEMLKEEQEVAMLGAPHNPAPPTSTVIHIRSETSVPDHVVWSLFNTLFMNTCCLGFIAFAYSVKSRDRKMVGDVTGAQAYASTAKCLNIWALILGIFMTILLVIIPVLVVQAQR
B5: 148 (protein, listed as Homo sapiens)
chain: B4 chain with V121I
B6: 154 (protein, listed as Homo sapiens)
chain: MAPAGCCCCCCFWGGAVAAAGAARRVLLLLLLGVLSARLRPGALATEHYSPLSLLKQELQHRQQQEAPAGGGGCSPQSGDWGDQYSAECGESSFLNFHDSDCEPKGSSPCDSLLSLNTEKILSQAKSIAEQKRFPFATDNDSTNEELAIAYVLIGSGLYDEAIRHFSTMLQILSPLGRINEAVNDLTKAIQLQPSARLYRHRGTLYFISEDYATAHEDFQQSLELNKNQPIAMLYKGLTFFHRGLLKEAIESFKEALKQKVDFIDAYKSLGQAYRELGNFEAATESFQKALLLNQNHVQTLQLRGMMLYHHGSLQEALKNFKRCLQLEPYNEVCQYMKGLSHVAMGQFYEGIKAQTKVMLNDPLPGQKASPEYLKVKYLREYSRYLHAHLDTPLTEYNIDVDLPGSFKDHWAKNLPFLIEDYEEQPGLQPHIKDVLHQNFESYKPEVQELICVADRLGSLMQYETPGFLPNKRIHRAMGLAALEVMQAVQRTWTNSKVRMNGKTRLMQWRDMFDIAVKWRRIADPDQPVLWLDQMPARSLSRGFNNHINLIRGQVINMRYLEYFEKILHFIKDRILVYHGANNPKGLLEVREALEKVHKVEDLLPIMKFNTKTKDGFTVNTKVPSLKDQGKEYDGFTITITGDKVGNILFSVETQTTEERTQLYHAEIDALYKDLTAKGKVLILSSEFGEADAVCNLILSLVYYFYNLMPLSRGSSVIAYSVIVGALMASGKEVAGKIPKGKLVDFEAMTAPGSEAFSKVAKSWMNLKSISPSYKTLPSVSETFPTLRSMIEVLNTDSSPRCLKKL
B7: 152 (protein, listed as Homo sapiens)
chain: MAPAGCCCCCCFWGGAVAAAGAARRVLLLLLLGVLSAGLRPGALATEHYSPLSLLKQELQHRQQQEAPAGGGGCSPQSGDWGDQYSAECGESSFLNFHDSDCEPKGSSPCDSLLSLNTEKILSQAKSIAEQKRFPFATDNDSTNEELAIAYVLIGSGLYDEAIRHFSTMLQEEPDLVSAIYGRGIAYGKKGLHDIKNAELALFELSRVITLEPDRPEVFEQRAEILSPLGRINEAVNDLTKAIQLQPSARLYRHRGTLYFISEDYATAHEDFQQSLELNKNQPIAMLYKGLTFFHRGLLKEAIESFKEALKQKVDFIDAYKSLGQAYRELGNFEAATESFQKALLLNQNHVQTLQLRGMMLYHHGSLQEALKNFKRCLQLEPYNEVCQYMKGLSHVAMGQFYEGIKAQTKVMLNDPLPGQKASPEYLKVKYLREYSRHLHAHLDTPLTEYNIDVDLPGSFKDHWAKNLPFLIEDYEEQPGLQPHIKDVLHQNFESYKPEVQELICVADRLGSLMQYETPGFLPNKRIHRAMGLAALEVMQAVQRTWTNSKVRMNGKTRLMQWRDMFDIAVKWRRIADPDQPVLWLDQMPARSLSRGFNNHINLIRGQVINMRYLEYFEKILHFIKDRILVYHGANNPKGLLEVREALEKVHKVEDLLPIMKQFNTKTKDGFTVNTKVPSLKDQGKEYDGFTITITGDKVGNILFSVETQTTEERTQLYHAEIDALYKDLTAKGKVLILSSEFGEADAVCNLILSLVYYFYNLMPLSRGSSVIAYSVIVGALMASGKEVAGKIPKGKLVDFEAMTAPGSEAFSKVAKSWMNLKSISPSYKTLPSVSETFPTLRSMIEVLNTDSSPRCLKKL

System: MAP kinase cascade activation
Assay: Reporter activity reflecting MAP kinase cascade activation, corrected using an internal control (Elk1-GAL4 luciferase reporter in 293-EBNA cells)
Format: cell-based, human
Settings: 12.5 ng/well expression plasmid; 293-EBNA cells; 24 hours
Experimental: (in the presence of 5% CO2). […] The method used for introduction was in accordance with the attached protocol. After culturing for 24 hours at 37° C., reporter activity (firefly luciferase acitivity), which reflects MAP kinase cascade activation, and reporter activity being the internal control (sea pansy luciferase) were measured using Picagene Dual (purchased from Toyo Ink Manufacturing) in accordance with the manufacturer's instructions.
Luciferase activity was measured with Perkin Elmer's Wallac ARVOTMST 1420 MULTILABEL COUNTER.
Reporter activity where an expression plasmid comprising the above gene was introduced, which reflects MAP kinase cascade activation corrected with internal control reporter activity, is shown in Table 1, which is expressed as a factor of the same reporter activity where a null vector was introduced (S/B value).

Molecule	Reporter activity corrected with internal control, as a factor of null vector (S/B value)
B1	1.8
B2	6.7
B3	5.6

Same assay, conditions: 25 ng/well expression plasmid; 293-EBNA cells; 24 hours

Molecule	Reporter activity corrected with internal control, as a factor of null vector (S/B value)
B4	3.5
B5	1.6
B1	2.9
B2	2.8
B3	10.1

Same assay, conditions: 50 ng/well expression plasmid; 293-EBNA cells; 24 hours

Molecule	Reporter activity corrected with internal control, as a factor of null vector (S/B value)
B4	5.6
B5	3.4
B1	6.8
B2	1.7
B3	16.6

Same assay, conditions: 100 ng/well expression plasmid; 293-EBNA cells; 24 hours

Molecule	Reporter activity corrected with internal control, as a factor of null vector (S/B value)
B4	8.8
B5	5.0

Same assay, conditions: plasmid 12.5 ng, 25 ng, 50 ng and 100 ng

Molecule	Dependence of corrected reporter activity on amount of expression plasmid
B4	increases that were dependent on the amount of expression plasmid
B5	increases that were dependent on the amount of expression plasmid
B1	increases that were dependent on the amount of expression plasmid
B2	increases that were dependent on the amount of expression plasmid
B3	increases that were dependent on the amount of expression plasmid
B6	increases that were dependent on the amount of expression plasmid
B7	increases that were dependent on the amount of expression plasmid
